# Measurements: patent publication US20220090138A1
# Legend:
# [1] = biological target: … (EBV LMP2A) presented by HLA-A*0201 (human); assay: cell-based or functional assay
# [2] = biological target: … (HCMV pp65) presented by HLA-A*0201 (human); assay: cell-based or functional assay
substance,measurement,setting,value
TCR recognizing … presented by A*0201 (PDB #3REV),in vitro T cell activation assay (luciferase); targeting cassette design A,[1],6.1
same,in vitro T cell activation assay (luciferase); targeting cassette design B,[1],6.3
same,in vitro T cell activation assay (luciferase); targeting cassette design C,[1],7.6
same,in vitro T cell activation assay (luciferase); targeting cassette design D,[1],7
same,in vitro T cell activation assay (luciferase); targeting cassette design E,[1],5.9
same,in vitro T cell activation assay (luciferase); targeting cassette design F,[1],3.7
same,in vitro T cell activation assay (luciferase); targeting cassette design G,[1],7.6
same,in vitro T cell activation assay (luciferase); targeting cassette design H,[1],5.4
same,in vitro T cell activation assay (luciferase); targeting cassette design I,[1],6.2
same,in vitro T cell activation assay (luciferase); targeting cassette design J,[1],6.4
same,"induction of luciferase, in vitro T cell activation assay; short cassette AAY",[1],11.3
same,"luciferase induction, in vitro T cell activation assay; short cassette 9AA (relative to uninfected controls)",[1],12
same,"luciferase induction, in vitro T cell activation assay; short cassette 17AA (relative to uninfected controls)",[1],10.3
same,"luciferase induction, in vitro T cell activation assay; short cassette 25AA (relative to uninfected controls)",[1],14.6
same,"luciferase induction, in vitro T cell activation assay; short cassette AAY (relative to uninfected controls)",[1],11.3
same,"luciferase induction, in vitro T cell activation assay; short cassette RR (relative to uninfected controls)",[1],8.5
TCR recognizing … presented by A*0201 (PDB #5D2N),in vitro T cell activation assay (luciferase); targeting cassette design A,[2],32.5
same,in vitro T cell activation assay (luciferase); targeting cassette design B,[2],31.8
same,in vitro T cell activation assay (luciferase); targeting cassette design C,[2],29.1
same,in vitro T cell activation assay (luciferase); targeting cassette design D,[2],29.1
same,in vitro T cell activation assay (luciferase); targeting cassette design E,[2],28.4
same,in vitro T cell activation assay (luciferase); targeting cassette design F,[2],20.4
same,in vitro T cell activation assay (luciferase); targeting cassette design G,[2],35
same,in vitro T cell activation assay (luciferase); targeting cassette design H,[2],30.3
same,in vitro T cell activation assay (luciferase); targeting cassette design I,[2],22.5
same,in vitro T cell activation assay (luciferase); targeting cassette design J,[2],38.1
same,"induction of luciferase, in vitro T cell activation assay; short cassette AAY",[2],24.5
same,"luciferase induction, in vitro T cell activation assay; short cassette 9AA (relative to uninfected controls)",[2],33.6
same,"luciferase induction, in vitro T cell activation assay; short cassette 17AA (relative to uninfected controls)",[2],42.8
same,"luciferase induction, in vitro T cell activation assay; short cassette 25AA (relative to uninfected controls)",[2],42.3
same,"luciferase induction, in vitro T cell activation assay; short cassette AAY (relative to uninfected controls)",[2],24.5
same,"luciferase induction, in vitro T cell activation assay; short cassette DPP (linker designed to disrupt antigen processing) (relative to uninfected controls)",[2],0.9
same,"luciferase induction, in vitro T cell activation assay; short cassette RR (relative to uninfected controls)",[2],21.7
